Data: PMC9496542

Columns and labels:
Experiment in all cases: NMR
Details in all cases: 298 K, 150 mM NaCl, 20 mM HEPES, 1 mM TCEP (working buffer), apo (no Ni(II)), intrinsically disordered, Cys394 reduced
[1] = molecular target: His365 (UniProt position 365, …)
[2] = molecular target: His371 (UniProt position 371, …)
[3] = molecular target: His345 (UniProt position 345, …)
[4] = molecular target: His355 (UniProt position 355, …)

B1: N-myc downstream-regulated gene 1 protein, C-terminal intrinsically disordered region (hNDRG1*C) (Homo sapiens) (protein)
chain: GMGYMPSASMTRLMRSRTASGSSVTSLDGTRSRSHTSEGTRSRSHTSEGTRSRSHTSEGAHLDITPNSGAAGNSAGPKSMEVSC
pKa [1]: 6.72 | pKa [2]: 6.84 | pKa [3]: 6.65 | pKa [4]: 6.65
